Where a chain is given by its changes, count along the chain named.
T1: hiR2-FL-D515E-T7 (human, UniProt Q6PJF5 1-856)
T1 sequence: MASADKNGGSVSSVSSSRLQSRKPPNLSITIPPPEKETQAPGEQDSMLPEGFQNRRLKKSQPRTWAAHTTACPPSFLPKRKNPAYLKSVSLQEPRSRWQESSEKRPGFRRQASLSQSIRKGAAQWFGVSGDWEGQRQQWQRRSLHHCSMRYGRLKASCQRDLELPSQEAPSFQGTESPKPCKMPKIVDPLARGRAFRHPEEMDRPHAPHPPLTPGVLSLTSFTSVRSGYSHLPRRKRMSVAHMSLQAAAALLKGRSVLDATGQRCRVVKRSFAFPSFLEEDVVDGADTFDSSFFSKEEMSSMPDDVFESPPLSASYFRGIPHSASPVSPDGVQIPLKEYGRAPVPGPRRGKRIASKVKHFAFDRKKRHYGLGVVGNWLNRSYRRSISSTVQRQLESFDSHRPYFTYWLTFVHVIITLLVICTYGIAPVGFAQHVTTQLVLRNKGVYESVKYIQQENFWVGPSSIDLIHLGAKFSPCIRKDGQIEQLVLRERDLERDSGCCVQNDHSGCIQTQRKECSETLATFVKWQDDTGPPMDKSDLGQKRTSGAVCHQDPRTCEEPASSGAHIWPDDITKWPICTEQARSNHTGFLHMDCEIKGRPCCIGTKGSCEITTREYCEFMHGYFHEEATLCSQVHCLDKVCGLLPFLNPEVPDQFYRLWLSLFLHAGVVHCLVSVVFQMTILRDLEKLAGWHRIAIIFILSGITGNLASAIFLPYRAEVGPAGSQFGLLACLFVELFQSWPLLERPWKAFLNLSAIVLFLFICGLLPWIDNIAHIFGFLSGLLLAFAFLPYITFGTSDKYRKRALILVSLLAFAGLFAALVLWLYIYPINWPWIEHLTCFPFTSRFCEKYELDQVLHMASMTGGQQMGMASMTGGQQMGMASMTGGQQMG

T2: hiR2-FL-L438S-T7 (human, UniProt Q6PJF5 1-856)
T2 sequence: T1 sequence with L438S, E515D

B1: antibody 48 (antibody, V domains shown)
VH: QVQLQQSGTELVRPGTSVKVSCKASGYAFTNYLIEWVKQRPGQGLEWIGVINPGSGFTKYNEKFKGKATLTADKSSSTVYMHLSSLTSEDSAVYFCARGLYRAMDYWGQGTSVTVSS
VL: DIQMTQSPASQSASLGESVTITCLASQTIATWLAWYQQKPGKSPQLLIYGATTLADGVPSRFSGGGSGTKFSFKISSLQAEDFVSYYCQQLYSTPYTFGGGTKLEIK
notes: mouse IgG, kappa light chain; also called clone #48; purified antibody 48
B2: antibody 50 (antibody, V domains shown)
VH: B1 VH with T9A, T16A, T30S, V79A, H82Q
VL: B1 VL with A30G, G50A, T52A, T53S, S85N, L91I
notes: mouse IgG, kappa light chain; also called clone #50; purified antibody 50

What was measured:
hiR2-FL-D515E-T7 = target: T1, hiR2-FL-D515E-T7; assay: FACS, MEF-DKO cells, 3 µg/ml
hiR2-FL-L438S-T7 = target: T2, hiR2-FL-L438S-T7; assay: FACS, MEF-DKO cells, 3 µg/ml

Row | Binder | loss of binding vs wild type (hiR2-FL-D515E-T7) | loss of binding vs wild type (hiR2-FL-L438S-T7)
1 | B1 | ≥ 30% | 
2 | B2 |  | ≥ 30%

From patent US20240287172A1 (SCIRHOM, published 2024)
